This is an account of results in the supplement of paper PMC7877785.

± gives the uncertainty stated by the source.

This data set in a line: self-splicing fitness, log relative to wild type (ln ratio); higher = more splicing; Tetrahymena group I intron in knt gene, E. coli kanamycin selection, DiMSum; sequences stand for … in CUCUCU…GGAGGGAAAAGUUAUCAGGCAUGCACCUGGUAGCUAGUCUUUAAACCAAUAGAUUGCAUCGGUUUAAAAGGCAAGACCGUCAAAUUGCGGGAAAGGGGUCAACAGCCGUUCAGUACCAAGUCUCAGGGGAAACUUUGAGAUGGCCUUGCAAAGGGUAUGGUAAUAAGCUGACGGACAUGGUCCUAACCACGCAGCCAAGUCCUAAGUCAACAGAUCUUCUGUUGAUAUGGAUGCAGUUCACAGACUAAAUGUCGGUCGGGGAAGAUGUAUUCUUCUCAUAAGAUAUAGUCGGACCUCUCCUUAAUGGGAGCUAGCGGAUGAAGUGAUGCAACACUGGAGCCGCUGGGAACUAAUUUGUAUGCGAAAGUAUAUUGAUUAGUUUUGGAGUACUCGUGGUCG
In outline:
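The eight P1ex-region nucleotides of an intron in the knt kanamycin-resistance gene on pET-22b(+) were all randomised and the library put into E. coli BL21(DE3). Six replicate transformations were grown overnight at 37°C or 30°C on LB agar with or without 25 μg/mL kanamycin, together with 100 μg/mL carbenicillin, 50 μM IPTG and 0.2% rhamnose. Colonies were pooled and amplicon-sequenced on an Illumina HiSeq 2500. Fitness from DiMSum is the error-weighted combination of wild-type-normalised replicate fold changes, kanamycin over none.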

Consider GCACAGCAAUAUUACGCCUU, for which the “self-splicing fitness (ln)” value was -0.943 ± 0.092 (30 °C) and -0.623 ± 0.087 (37 °C).
As for CGCUAGCAAUAUUACGACCC, the “self-splicing fitness (ln)” value is -0.616 ± 0.16 (30 °C) and -0.956 ± 0.45 (37 °C).
In the same order, the values of AUCAAGCAAUAUUACGGAGA are -2.57 ± 0.16 and -2.81 ± 0.24.
For the sequence CGCUAGCAAUAUUACGCAAA, the “self-splicing fitness (ln)” value (37 °C) was -3.01 ± 0.47.
Consider AUCUAGCAAUAUUACGGGUU, for which the “self-splicing fitness (ln)” value is, setting by setting: (30 °C) -3.51 ± 0.15; (37 °C) -3.09 ± 0.21.
In the same order, the values of CUCUAGCAAUAUUACGCGAA are -2.68 ± 0.24 and -3.56 ± 0.28.
The corresponding values for CUCAAGCAAUAUUACGGAUC are -3.98 ± 0.43 and -2.19 ± 0.27.
As for AAACAGCAAUAUUACGAUGC, the “self-splicing fitness (ln)” value was -2.27 ± 0.058 (30 °C) and -1.55 ± 0.074 (37 °C).
Consider CAUUAGCAAUAUUACGUCGC, for which the “self-splicing fitness (ln)” value (30 °C) is -2.38 ± 0.32.
Turning to AAUAAGCAAUAUUACGGCAA, the “self-splicing fitness (ln)” value reads like this: (30 °C) -0.158 ± 0.09; (37 °C) -0.3 ± 0.12.
In the same order, the values of GAACAGCAAUAUUACGGAGA are -1.55 ± 0.19 and -1.88 ± 0.13.
For the sequence GUACAGCAAUAUUACGGCGA, the “self-splicing fitness (ln)” value by setting is: (30 °C) -1.14 ± 0.18; (37 °C) -1.09 ± 0.14.
In the same order, the values of UCGAAGCAAUAUUACGUGGA are -2.29 ± 0.14 and -2.46 ± 0.16.
The corresponding values for CCCGAGCAAUAUUACGUCGC are -2.91 ± 0.25 and -2.29 ± 0.4.
For UGUGAGCAAUAUUACGCUAG, the “self-splicing fitness (ln)” value is -3.43 ± 0.32 (30 °C) and -1.59 ± 0.2 (37 °C).
On to GGAUAGCAAUAUUACGCGCA, for which the “self-splicing fitness (ln)” value was -0.345 ± 0.14 (30 °C) and 0.0709 ± 0.14 (37 °C).
For the sequence ACUGAGCAAUAUUACGUCGA, the “self-splicing fitness (ln)” value is, setting by setting: (30 °C) -3.59 ± 0.22; (37 °C) -2.07 ± 0.18.
The corresponding values for ACGCAGCAAUAUUACGAUGA are -1.1 ± 0.064 and -0.521 ± 0.068.
As for GGGGAGCAAUAUUACGUACG, the “self-splicing fitness (ln)” value was -1.76 ± 0.16 (30 °C) and -0.525 ± 0.18 (37 °C).
Consider AGGUAGCAAUAUUACGUUUU, for which the “self-splicing fitness (ln)” value runs as follows: (30 °C) -2.585 ± 0.016; (37 °C) -1.54 ± 0.034.
In the same order, the values of GAAAAGCAAUAUUACGCAAC are -2.92 ± 0.16 and -0.437 ± 0.16.
Regarding ACUAAGCAAUAUUACGGUUC, the “self-splicing fitness (ln)” value is -3.92 ± 0.2 (30 °C) and -1.42 ± 0.13 (37 °C).
As for CAGAAGCAAUAUUACGUUCC, where the note is “37 °C”, the “self-splicing fitness (ln)” value was -1.75 ± 0.47.
On to CCGCAGCAAUAUUACGCCCG, for which the “self-splicing fitness (ln)” value (30 °C) is -0.205 ± 0.11 and the “self-splicing fitness (ln)” value (37 °C) amounted to 0.732 ± 0.16.
In the same order, the values of UCUAAGCAAUAUUACGGUCA are -1.31 ± 0.12 and -0.792 ± 0.12.
In the same order, the values of AAGUAGCAAUAUUACGGACA are -1.7 ± 0.12 and -0.343 ± 0.12.
With CGAGAGCAAUAUUACGCUCU, the “self-splicing fitness (ln)” value runs as follows: (30 °C) -3.65 ± 0.27; (37 °C) -2.62 ± 0.3.
In the case of AUGAAGCAAUAUUACGGGAG, the “self-splicing fitness (ln)” value runs as follows: (30 °C) -1.71 ± 0.098; (37 °C) -1.16 ± 0.11.
Consider UGUAAGCAAUAUUACGAGCA, for which the “self-splicing fitness (ln)” value (30 °C) is -0.193 ± 0.14 and the “self-splicing fitness (ln)” value (37 °C) turned out to be 0.404 ± 0.2.
On to GACGAGCAAUAUUACGUCAA, for which the “self-splicing fitness (ln)” value (30 °C) is -3.11 ± 0.27.
For GAACAGCAAUAUUACGCCGU, the “self-splicing fitness (ln)” value runs as follows: (30 °C) -1.98 ± 0.13; (37 °C) -1.61 ± 0.13.
The corresponding values for ACUAAGCAAUAUUACGUAGU are -3.04 ± 0.14 and -3.45 ± 0.21.
In the same order, the values of AGUAAGCAAUAUUACGCGGU are -2.66 ± 0.24 and -2.46 ± 0.29.
UUCUAGCAAUAUUACGGCCC: the “self-splicing fitness (ln)” value (30 °C) was -1.62 ± 0.41.
With UACCAGCAAUAUUACGCAUC, the “self-splicing fitness (ln)” value runs as follows: (30 °C) -1.93 ± 0.095; (37 °C) -1.13 ± 0.095.
Take GCAAAGCAAUAUUACGGUUG: the “self-splicing fitness (ln)” value was -2.86 ± 0.13 (30 °C) and -2.04 ± 0.16 (37 °C).
In the same order, the values of AACAAGCAAUAUUACGGCCA are -0.5 ± 0.077 and -0.412 ± 0.092.
As for AGGGAGCAAUAUUACGAAUU, where the note is “37 °C”, the “self-splicing fitness (ln)” value was -0.525 ± 0.18.
Take ACGCAGCAAUAUUACGCAAA: the “self-splicing fitness (ln)” value is, setting by setting: (30 °C) -2.51 ± 0.13; (37 °C) -1.77 ± 0.14.
Regarding GGCAAGCAAUAUUACGAUCU, the “self-splicing fitness (ln)” value reads like this: (30 °C) -0.22 ± 0.097; (37 °C) -0.162 ± 0.13.
The corresponding values for GAUAAGCAAUAUUACGGAGU are -2.46 ± 0.16 and -0.942 ± 0.14.
Consider UCGGAGCAAUAUUACGCUGC, for which the “self-splicing fitness (ln)” value (30 °C) is -3.04 ± 0.38.
Regarding AUGAAGCAAUAUUACGGUUU, the “self-splicing fitness (ln)” value runs as follows: (30 °C) -1.99 ± 0.088; (37 °C) -0.875 ± 0.091.
In the same order, the values of GACCAGCAAUAUUACGAUGU are -0.366 ± 0.055 and 0.0308 ± 0.072.
In the same order, the values of UCAAAGCAAUAUUACGAGAA are -3.28 ± 0.34 and -1.48 ± 0.25.
The corresponding values for CAGCAGCAAUAUUACGUAGC are -4.02 ± 0.28 and -2.94 ± 0.26.
For the sequence AGUAAGCAAUAUUACGCAUU, the “self-splicing fitness (ln)” value by setting is: (30 °C) -2.48 ± 0.15; (37 °C) -2.26 ± 0.18.
With UGAUAGCAAUAUUACGUCAU, the “self-splicing fitness (ln)” value is -3.03 ± 0.27 (30 °C) and -2.16 ± 0.2 (37 °C).
The corresponding values for ACGGAGCAAUAUUACGACAU are -1.947 ± 0.018 and -1.1 ± 0.035.
As to CUAAAGCAAUAUUACGAAUG, the “self-splicing fitness (ln)” value reads like this: (30 °C) 0.281 ± 0.067; (37 °C) 0.497 ± 0.088.
As for UGGUAGCAAUAUUACGACUU, the “self-splicing fitness (ln)” value was -0.197 ± 0.16 (30 °C) and 0.212 ± 0.16 (37 °C).
Regarding UCGAAGCAAUAUUACGAUAC, the “self-splicing fitness (ln)” value (30 °C) is -3.33 ± 0.25.
For the sequence UUUCAGCAAUAUUACGGAAG, the “self-splicing fitness (ln)” value reads like this: (30 °C) -1.69 ± 0.12; (37 °C) -0.536 ± 0.19.
The corresponding values for GAACAGCAAUAUUACGUUUC are -4.43 ± 0.14 and -2.53 ± 0.14.
Take UUAAAGCAAUAUUACGCACU: the “self-splicing fitness (ln)” value is -0.0158 ± 0.068 (30 °C) and 0.681 ± 0.095 (37 °C).
For AGCAAGCAAUAUUACGGGUU, the “self-splicing fitness (ln)” value by setting is: (30 °C) -1.67 ± 0.1; (37 °C) -2.17 ± 0.14.
On to AUAAAGCAAUAUUACGCUCU, for which the “self-splicing fitness (ln)” value (30 °C) was 0.0815 ± 0.089 and the “self-splicing fitness (ln)” value (37 °C) was found to be 0.0503 ± 0.1.
The corresponding values for AACAAGCAAUAUUACGUGGA are -2.59 ± 0.11 and -1.51 ± 0.094.
The corresponding values for UUACAGCAAUAUUACGAAUC are -3.27 ± 0.27 and -2.13 ± 0.3.
On to UAGGAGCAAUAUUACGGUGU, for which the “self-splicing fitness (ln)” value runs as follows: (30 °C) -3.4 ± 0.3; (37 °C) -2.9 ± 0.43.
With AAUCAGCAAUAUUACGAAUC, the “self-splicing fitness (ln)” value was -0.973 ± 0.1 (30 °C) and 0.372 ± 0.12 (37 °C).
The corresponding values for AUACAGCAAUAUUACGCCUA are -1.1 ± 0.11 and -0.472 ± 0.12.
As to CGCAAGCAAUAUUACGAGCG, the “self-splicing fitness (ln)” value runs as follows: (30 °C) -3 ± 0.38; (37 °C) -2.52 ± 0.44.
In the same order, the values of GUGAAGCAAUAUUACGAAAU are -0.716 ± 0.11 and -0.0167 ± 0.12.
The corresponding values for GCCCAGCAAUAUUACGUUGG are -3.22 ± 0.13 and -2.92 ± 0.15.
In the same order, the values of CGAGAGCAAUAUUACGAGAG are -3.58 ± 0.35 and -0.712 ± 0.31.
As for GCUCAGCAAUAUUACGGCUA, the “self-splicing fitness (ln)” value is -0.707 ± 0.13 (30 °C) and -0.758 ± 0.12 (37 °C).
The corresponding values for CACGAGCAAUAUUACGUUUC are -3.42 ± 0.17 and -2.42 ± 0.22.
Turning to CCAUAGCAAUAUUACGGCAG, the “self-splicing fitness (ln)” value runs as follows: (30 °C) -2.02 ± 0.14; (37 °C) -1.34 ± 0.17.
Consider AUGUAGCAAUAUUACGCCGG, for which the “self-splicing fitness (ln)” value was -2.45 ± 0.17 (30 °C) and -0.942 ± 0.33 (37 °C).
For CAGGAGCAAUAUUACGCACG, the “self-splicing fitness (ln)” value is -1.71 ± 0.088 (30 °C) and 0.544 ± 0.15 (37 °C).
In the case of CGGGAGCAAUAUUACGCGCU, for the setting “30 °C”, the “self-splicing fitness (ln)” value was -3.25 ± 0.32.
As to GGCAAGCAAUAUUACGUUGU, the “self-splicing fitness (ln)” value was -3.52 ± 0.16 (30 °C) and -2.6 ± 0.21 (37 °C).
The corresponding values for CUACAGCAAUAUUACGCCCA are -2.99 ± 0.27 and -1.85 ± 0.23.
CCGGAGCAAUAUUACGACAA: the “self-splicing fitness (ln)” value (30 °C) is -3.72 ± 0.43 and the “self-splicing fitness (ln)” value (37 °C) is -2.16 ± 0.3.
In the same order, the values of GGCAAGCAAUAUUACGAACG are -0.449 ± 0.068 and -0.593 ± 0.061.
The corresponding values for CUCUAGCAAUAUUACGAAAU are -3.13 ± 0.21 and -3.18 ± 0.27.
The corresponding values for GGUUAGCAAUAUUACGUUAG are -2.34 ± 0.13 and -1.69 ± 0.19.
